For 18 molecules, Y586通道PE荧光值 results are on record in patent CN114106174A (SUZHOU SCENE MEDICAL SCIENCE AND TECH LIMITED COMPANY, dated 2022).

Substitutions are numbered along the chain they refer to.

First the molecules themselves.
B1: 23D1-8 (antibody, V domains shown)
VH: QVQLVQSGAEVKKPGASVKVSCKASGYTFTGYYIHWVRQAPGQGLEWMGRINPNSGGTDFAQKFQARVTMTRDTAINIVYMELSRLRSDDTAVYYCARVVVASYYFDNWGQGTLVTVSS
VL: not shown
B2: 29A9-5 (antibody, V domains shown)
VH: QVQLQESGPGLVKPSGTLSLTCAVFGDSISSSYWWSWVRQPPGKGLEWIGEIYHSGSTHYNPSLKSRVTISVDKSKNHLSLKLISVTDADTAVYYCAGEDTGWPFDFWGQGTLVTVSS
VL: not shown
B3: 24B9-10 (antibody, V domains shown)
VH: QVQLQESGPGLVKPSGTLSLTCAVSGGSISSSNWWTWVRQPPGKGLEWIGEIYHSGSTNYNPSLKSRVTISVDKSKNQFSLKLSSVTAADTAVYYCARTGPIVTTEYWGQGTLVTVSS
VL: EIVLTQSPGTLSLSPGERATLSCRASQSVSSGYLAWYQQKPGQAPRLLIYGASIRATGIPDRFSGSGSGTDFTLTISRLEPEDFALYYCQQYGSSPLTFGGGTKVEIKR
B4: 21F3-11 (antibody, V domains shown)
VH: QVQLQESGPGLVKPSGTLSLTCAVSGGSISSSNWWSWVRQPPGKGLEWIGEIYHGGSTNYNPSLKSRITISVDKSKNQFSLKLSSVTAADTAMYYCATLPGYSSGWFDSWGQGTLVTVSS
VL: B3 VL with T5M, G32S, R46S, I54N, T57S, S77T, L86V, K104R
B5: 23C4-1-5 (antibody, V domains shown)
VH: QVQLQESGPGLVKPSGTLSLTCAVSGGSISSSNWWSWVRQPPGKGLEWIGEIYHSGSTTYNPSLKSRVTISVDKSKSQISLKLTSVTAADTAVYYCARGDVLLWFGGRGTLVTVSS
VL: B3 VL with T20S, G32N, A44T, T75I, L86V, G93S, L97I, G101Q, K104R, V105L
B6: 24A12-12 (antibody, V domains shown)
VH: B3 VH with S15A, T36N, K74T, S84T, I102T, E106D
VL: B3 VL with G32S, I54Y, I59M, D61E, L86I, S94R
B7: 16E4-10-5 (antibody, V domains shown)
VH: B5 VH with A23D, T59N, S77N, I79V, T84N, V101I, R108Q
VL: B3 VL with G32R, I54N, I59M, L86V, L97I, G101Q, K104R, V105L
B8: 28E3-4 (antibody, V domains shown)
VH: QVQLQESGPGLVKPSGTLSLTCAVSGGSISRSNWWTWVRQSPGKGLEWIGEIYHSGNTNYNPSLKSRVTISLDKSKNQFSLKLSSVTAADTAVYYCASSGSLYMDVWGKGTTVTVSS
VL: DIQMTQSPSSLSASVGDRVTISCRASQSTSSYLNWYQQKPGKAPRLLIYGASSLQSGVPSRFSGSGSGTDFILTISSLQPEDFATYYCQQSYSIPITFGQGTRLEIKR
B9: 29B8-3 (antibody, V domains shown)
VH: QVQLQESGPGLVKPSGTLSLTCAVSGVSISSSNWWSWVRQPPGKGLEWIGEIYHSGNTNYNPSLKSRVTISVDKSKNQFSLKLSSVTAADTAVYYCAETSTITTNYWGQGTLVTVSS
VL: B8 VL with S22T, S28T, T29I, R45K, G50A, G66E, I72T, S91T
B10: 4D9-12 (antibody, V domains shown)
VH: B8 VH with R31S, T36S, S41P, N59I
VL: B8 VL with S12L, A13S, Q27H, S28G, T29S, S31T, S67F, L78M
B11: 38D9-12 (antibody, V domains shown)
VH: QVQLQESGPGLVKPSGTLSLTCAVSGDSISSTNWWSWVRQPPGKGLEWIGEINHNGSTYYNPSLKSRVTISVDKSKNQFSLKLRSVTAADTAVYYCAREDYYYMDVWGKGTTVTVSS
VL: DIQMTQSPSSLSASVGDRVTITCRTSQGIWNDLGWYQQKPGKAPKRLIYAASSLQSGVPSRFSGSESGTEFTLTISSLQPEDFATYYCLQYNNYPLTFGGGTKVEIKR
B12: 18F11-4 (antibody, V domains shown)
VH: QVQLQESGPGLVKPSGTLSLTCAVSGGSISSYNWWSWVRQPPGKGLEWIGEIYHSGSTNYNPSLKSRVTISVDKSKNQFSLKLSSVTAADTAVYYCARDEDYYGSGNYYHWGQGTLVTVSS
VL: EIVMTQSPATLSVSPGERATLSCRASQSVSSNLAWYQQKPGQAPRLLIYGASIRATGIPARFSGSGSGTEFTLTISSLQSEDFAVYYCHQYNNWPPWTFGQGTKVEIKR
B13: 21F9-12 (antibody, V domains shown)
VH: B12 VH with S57N, V93M, E100Q, Y108F, H110Y
VL: not shown
B14: 17D5-11 (antibody, V domains shown)
VH: QVQLQESGPGLVKPSETLSLTCAVSGGSINSTNWWSWVRQPPGKGLEWIGEIYHSGSTNYNPSLKSRVTISVDKSKNQFSLKLSSVTAADTAVYYCARGGAVALDYWGQGTLVTVSS
VL: EIVLTQSPGPLSLSPGDRATLSCRASQTVSSSYLAWYLQKPGQAPRLLIYGASIRATGIPDRFSGSGSGTDFTLTISRLEPEDFAVYYCQQYGNSPITFGQGTRLEIKR
B15: 18F5-2 (antibody, V domains shown)
VH: B5 VH with L4M, T21I, N33K, T59N, V72I, S77N, I79F, K82R, R108Q
VL: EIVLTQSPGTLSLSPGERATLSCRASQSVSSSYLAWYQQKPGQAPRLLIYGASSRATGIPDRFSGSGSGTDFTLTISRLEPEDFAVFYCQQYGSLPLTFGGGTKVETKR
B16: 26C3-4 (antibody, V domains shown)
VH: B5 VH with A23D, T59N, S77N, I79V, T84N, V101I, R108Q
VL: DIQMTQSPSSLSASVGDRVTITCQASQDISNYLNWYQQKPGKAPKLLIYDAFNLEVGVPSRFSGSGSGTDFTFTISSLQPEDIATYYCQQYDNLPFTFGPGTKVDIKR
B17: 35B8-6 (antibody, V domains shown)
VH: QITLKESGPTLVKPTQTLTLTCTFSGFSLSTSAVNVGWIRQPHGKALEWLALIFWNDDKRYSPSLKNRLTITKDTSKDQVVLTMSNMDPVDTATYYCAQYNWNSSFDYWGQGTLVTVSS
VL: DIQMTQSPSSLSASLGDRVTITCQASQDINTYLNWYQQKPGKAPKVLIYDASNLETGVPSRFSGSGSGTDFTFTISSLQPEDIATFYCQQYDNLITFGGGTKVEIKR
B18: 48D10-5 (antibody, V domains shown)
VH: QVQLVQSGAEVKKPGASMKVSCKASGYTFANFGINWVRQAPGQGLEWMGWISAYNGYTNYAQQFQGRITMTTDTSTSTAYMELRSLRSDDTAIYYCVIWFGELLSFDYWGQGTLVTVSS
VL: DIQMTQFPSSLSASVGDRVTITCRASQDISNYLAWFQQKPGKAPKSLIYAASSLQSGVPSKFSGNGFGTDFTFPLSRMQPEDFASSYCQQYNNYTFTFGRGTKVEIKR

In the test the target is T1, OX40 on OX40-overexpressing cells (OX40过表达细胞表面OX40) (UniProt P43489 29-277, limits assumed).
T1 construct: whole, on cells; The cell line and the construct of the overexpressing cells are not described; also called CD134; TNFRSF4
T1 sequence (looked up): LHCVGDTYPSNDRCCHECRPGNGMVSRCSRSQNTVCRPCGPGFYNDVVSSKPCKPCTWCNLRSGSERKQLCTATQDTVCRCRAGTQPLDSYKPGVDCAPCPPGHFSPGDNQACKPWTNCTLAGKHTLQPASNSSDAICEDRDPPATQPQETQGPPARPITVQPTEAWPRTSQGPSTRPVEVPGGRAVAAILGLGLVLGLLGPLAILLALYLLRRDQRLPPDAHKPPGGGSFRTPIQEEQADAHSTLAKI
Briefly: flow cytometry, hybridoma supernatant on OX40-overexpressing cells, goat anti-mouse IgG-PE. For orientation: Flow cytometry measures light scatter and fluorescence of single cells or particles in a stream.
B1: the Y586通道PE荧光值 was 166000.
Then B2, with 221000.
B3 registered a Y586通道PE荧光值 of 313000.
Consider B4, for which the Y586通道PE荧光值 turned out to be 171000.
Take B5: the Y586通道PE荧光值 is 63900.
As for B6, the figure is 343000; as for B7, 377000.
As for B8, the figure is 195000; as for B9, 388000; as for B10, 187000.
In turn, B11 came in with a Y586通道PE荧光值 of 243000.
Molecule B12 had a Y586通道PE荧光值 of 402000.
As for B13, the figure is 424000; as for B14, 475000; as for B15, 432000.
Take B16: the Y586通道PE荧光值 came out at 416000.
As for B17, the figure is 243000; as for B18, 358000.
